The target of the experiment is fibronectin, P02751. Kind of experiment: bacterial adherence to fibronectin-coated 96-well plates (colony counting). The settings on record: chain shown with the change; plates coated with 25 µg/ml of fibronectin; in the presence of arabinose; parent: 100; read off a plot.

Substitutions are numbered along the chain they refer to. In names and notes the source's numbering stands.

fibronectin, P02751, sequence (P02751 32-2477): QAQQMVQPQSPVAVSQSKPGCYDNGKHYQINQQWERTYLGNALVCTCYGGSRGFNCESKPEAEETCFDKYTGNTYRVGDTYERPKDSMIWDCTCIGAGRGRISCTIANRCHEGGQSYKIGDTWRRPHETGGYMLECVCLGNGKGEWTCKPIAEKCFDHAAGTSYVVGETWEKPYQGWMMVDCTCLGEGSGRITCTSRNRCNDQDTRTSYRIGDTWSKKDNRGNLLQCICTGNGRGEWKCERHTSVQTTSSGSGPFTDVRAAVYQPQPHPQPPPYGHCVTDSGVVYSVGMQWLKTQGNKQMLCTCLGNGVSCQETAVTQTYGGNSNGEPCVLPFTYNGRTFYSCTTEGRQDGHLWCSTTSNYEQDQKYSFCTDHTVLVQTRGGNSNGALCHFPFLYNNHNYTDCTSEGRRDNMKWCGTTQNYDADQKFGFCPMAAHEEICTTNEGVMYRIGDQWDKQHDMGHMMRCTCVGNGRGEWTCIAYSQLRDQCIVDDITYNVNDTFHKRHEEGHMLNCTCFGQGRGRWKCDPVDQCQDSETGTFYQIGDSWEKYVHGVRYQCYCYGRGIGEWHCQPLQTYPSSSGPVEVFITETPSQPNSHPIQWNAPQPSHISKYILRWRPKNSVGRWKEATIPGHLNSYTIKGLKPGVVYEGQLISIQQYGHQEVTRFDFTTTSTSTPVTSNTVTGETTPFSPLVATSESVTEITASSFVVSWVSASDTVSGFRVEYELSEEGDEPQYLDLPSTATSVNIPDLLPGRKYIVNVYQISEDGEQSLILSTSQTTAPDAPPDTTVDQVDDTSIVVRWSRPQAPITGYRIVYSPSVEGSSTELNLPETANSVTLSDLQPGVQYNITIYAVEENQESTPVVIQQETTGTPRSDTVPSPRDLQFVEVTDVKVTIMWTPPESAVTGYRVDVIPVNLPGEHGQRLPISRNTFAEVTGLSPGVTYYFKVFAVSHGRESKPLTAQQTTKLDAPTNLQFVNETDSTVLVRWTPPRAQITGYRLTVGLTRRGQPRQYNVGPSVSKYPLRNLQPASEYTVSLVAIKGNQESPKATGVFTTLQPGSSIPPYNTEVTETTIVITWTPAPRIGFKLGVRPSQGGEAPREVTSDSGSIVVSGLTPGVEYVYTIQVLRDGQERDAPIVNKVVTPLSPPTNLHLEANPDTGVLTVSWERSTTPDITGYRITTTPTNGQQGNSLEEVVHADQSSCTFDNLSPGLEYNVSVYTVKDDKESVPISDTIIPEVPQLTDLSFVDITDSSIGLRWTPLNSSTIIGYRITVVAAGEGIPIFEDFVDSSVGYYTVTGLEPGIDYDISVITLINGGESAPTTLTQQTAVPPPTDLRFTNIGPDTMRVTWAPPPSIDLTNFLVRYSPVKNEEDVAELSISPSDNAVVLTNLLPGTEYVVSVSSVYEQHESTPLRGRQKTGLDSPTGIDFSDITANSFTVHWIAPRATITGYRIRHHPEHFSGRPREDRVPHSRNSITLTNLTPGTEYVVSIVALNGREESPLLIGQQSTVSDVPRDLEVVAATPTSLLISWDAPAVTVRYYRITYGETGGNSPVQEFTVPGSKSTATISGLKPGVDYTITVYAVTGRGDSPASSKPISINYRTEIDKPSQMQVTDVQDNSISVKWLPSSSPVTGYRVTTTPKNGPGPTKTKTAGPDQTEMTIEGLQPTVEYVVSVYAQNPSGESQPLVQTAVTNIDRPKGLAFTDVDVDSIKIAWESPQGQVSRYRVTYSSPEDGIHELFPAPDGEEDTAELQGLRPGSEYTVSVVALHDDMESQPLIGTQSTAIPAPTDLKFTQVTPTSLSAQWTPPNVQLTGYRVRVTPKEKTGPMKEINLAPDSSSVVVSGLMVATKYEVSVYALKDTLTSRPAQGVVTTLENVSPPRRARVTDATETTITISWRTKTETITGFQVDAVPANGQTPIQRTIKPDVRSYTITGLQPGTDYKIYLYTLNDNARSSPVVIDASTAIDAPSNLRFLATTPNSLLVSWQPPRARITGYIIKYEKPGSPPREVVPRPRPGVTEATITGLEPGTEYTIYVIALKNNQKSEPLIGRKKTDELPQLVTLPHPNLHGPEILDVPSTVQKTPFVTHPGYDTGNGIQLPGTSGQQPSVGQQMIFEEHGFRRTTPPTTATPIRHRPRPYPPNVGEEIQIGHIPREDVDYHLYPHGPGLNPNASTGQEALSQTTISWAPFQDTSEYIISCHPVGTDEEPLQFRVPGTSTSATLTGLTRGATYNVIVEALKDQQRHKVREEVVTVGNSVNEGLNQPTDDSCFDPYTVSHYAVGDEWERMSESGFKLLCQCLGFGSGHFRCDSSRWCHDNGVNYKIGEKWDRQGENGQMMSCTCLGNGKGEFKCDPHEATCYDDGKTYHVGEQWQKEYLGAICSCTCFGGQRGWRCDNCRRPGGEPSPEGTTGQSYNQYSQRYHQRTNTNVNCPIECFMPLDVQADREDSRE

B1: AafA, major subunit of AAF/II, on wild type EAEC 042 Q43A (protein)
chain: VAKTATSTITVVNFCDITITPATNRDVNVDRSANIDLSFTIRAPQRCADAGMRIKAWGEANHGQLLIKPQGGNKSAGFTLASPRFSYIPNNPANIMNGFVLTNPGVYQLGMQGSITPAIPLRPGLYEVVLNAELVTN
For B1, the percent of parent (% of binding to Fn) is 110.

B2: AafA, major subunit of AAF/II, on wild type EAEC 042 T18I (protein)
chain: B1 chain with T18I, A43Q
As to B2, the percent of parent (% of binding to Fn) amounted to 65.

(Values after PMC4169507.)
